In the supplement of paper PMC11136658:

Test system: peptide library, one residue held at a place counted from the Y acceptor
Test: relative phosphorylation of the sub-library (ratio to the mean residue at this position); higher = residue favoured
Outline: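 Every value reflects phosphorylation relative to the mean randomized residue. The sum of the 18 randomized residues, or 16 in the Ser/Thr-free library, served to normalize intensities at each position, which were then multiplied by that number. Intensities came from phosphorimaging with ImageQuant of biotinylated Tyr-centred peptides captured on streptavidin membranes after 90 min with purified recombinant kinases and 50 μM ATP plus γ-32P-ATP.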

Chain of MUSK, construct: aa529-end, human (O15146 529-869, looked up): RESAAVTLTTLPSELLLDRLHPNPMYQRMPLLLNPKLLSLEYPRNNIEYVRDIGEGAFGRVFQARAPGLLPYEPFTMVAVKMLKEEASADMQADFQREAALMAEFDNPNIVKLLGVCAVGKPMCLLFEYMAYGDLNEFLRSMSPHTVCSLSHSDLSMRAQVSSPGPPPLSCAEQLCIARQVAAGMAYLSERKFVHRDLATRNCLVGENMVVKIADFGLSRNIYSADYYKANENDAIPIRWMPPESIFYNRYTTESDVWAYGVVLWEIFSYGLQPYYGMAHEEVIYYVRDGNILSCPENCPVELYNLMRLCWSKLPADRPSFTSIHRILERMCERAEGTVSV

MUSK, construct: aa529-end, human (from UniProt O15146)
relative phosphorylation
Details	at +1	at +2	at +3	at +4	at +5	at -1	at -2	at -3	at -4	at -5
A fixed	1.21	0.711	0.689	0.799	0.969	0.559	0.817	0.963	1.25	1.09
D fixed	0.341	0.179	0.233	0.665	0.832	0.932	0.856	1.09	0.763	0.981
E fixed	0.619	0.251	0.156	0.481	0.784	2.14	1.44	1	0.919	0.766
F fixed	1.9	1.59	1.49	1.06	1.01	1.33	0.962	1.16	1.38	1.33
G fixed	0.835	0.386	0.886	0.94	1.08	0.401	1.06	0.981	1.14	1.06
H fixed	1.68	0.852	0.868	1.2	1.07	1.51	1.14	1.04	0.977	0.891
I fixed	1.31	1.54	1.59	0.808	0.781	1.5	1.02	0.87	1.02	0.946
K fixed	0.317	1.58	0.99	1.53	1.15	0.248	0.779	0.855	0.822	0.916
L fixed	0.926	1.12	1.09	0.907	1.02	1.62	1.09	1.04	1.13	1.17
M fixed	1.58	0.918	1.24	1.1	0.964	0.939	0.914	1.15	0.996	1.13
N fixed	0.41	0.774	0.62	0.848	0.935	2.14	1.35	1.09	0.877	1.04
P fixed	0.151	0.654	1.2	0.974	1.04	0.476	0.672	0.865	1.09	1.01
Q fixed	0.768	0.847	0.48	1.11	0.786	0.782	1.04	0.881	1.06	1.11
R fixed	0.541	2.19	2.06	1.57	1.66	0.255	0.976	0.866	0.972	0.892
S fixed	0.58	0.819	0.591	1.04	0.858	0.437	1.05	1.09	0.721	0.804
T fixed	0.563	0.862	0.843	0.771	0.987	0.465	1.03	0.936	0.627	0.663
V fixed	1.55	1.69	1.48	0.86	0.836	1.19	0.921	0.874	0.881	0.962
W fixed	2.72	1.05	1.49	1.36	1.24	1.06	0.892	1.25	1.39	1.25
pThr fixed	1.15	0.475	0.215	0.619	0.435	1.32	0.741	0.718	0.587	0.773
pTyr fixed	11.8	1.11	0.592	0.73	0.832	5.58	1.07	1.32	0.963	1.02
